In patent publication US8476051B2, “Thermostable alcohol dehydrogenase derived from Thermococcus guaymasensis” (priority 2008, dated 2013):
Where “and” joins values, the source holds several entries; their conditions need not be identical. Identical values can stand only once. Like-named read-outs stand apart in the source and are kept apart here.

What was measured:
T. guaymasensis ADH [1] = target: T1, T. guaymasensis ADH (Thermococcus guaymasensis, UniProt F8S123); test: Kinetic parameters, alcohol oxidation with NADP+; assay type: biochemical; settings: co-substrate NADP^+ (0.4 mM)
Description: (§1) The purified enzyme (0.25 μg) initiated the enzyme assay. […] The protein concentrations of all samples were determined using the Bradford method and bovine serum albumin served as the standard protein (Bradford 1976).
(§2) Apparent values of Km and Vmax were calculated using the curve fittings of SigmaPlot (Systat Software Inc., San Jose, Calif., USA).

T. guaymasensis ADH [2] = target: T1, T. guaymasensis ADH; test: Kinetic parameters, ketone reduction with NADPH; assay type: biochemical
Description: as §1, §2

T. guaymasensis ADH [3] = target: T1, T. guaymasensis ADH; test: Stereoselective conversion between acetoin and 2,3-butanediol (chiral GC); assay type: biochemical
Description: All the reactions were carried out at 30° C. for 24 hours unless specified. After that, the reaction mixture (1 ml) was extracted with 1 ml ethyl acetate or dichloride methane with shaking on a Gyrotory water bath shaker model G76 (New Brunswick Scientific Co., INC., NJ, USA) at 350 rpm for 30 min (room temperature). The stereoselectivity of the purified enzyme was determined using the Shimadzu GC-14A gas chromatography equipped with a CP-Chirasil-Dex CB column (0.25 mm ID×25 m length, Varian Inc., Palo Alto, Calif., USA). The following GC operating conditions included the FID detector (250° C.) at a sensitivity range of 10 and helium as the carrier gas at a linear velocity of 40 cm s^−1. […] The reaction mixture after extraction (0.5 μl) was directly applied onto the injector (200° C.) for each assay. The peak areas were quantitated using specific external standards.

[4] = ADH specific activity (spectrophotometric enzyme assay); assay type: biochemical; settings: 80° C.; for Specific activity: standard assay
Description: as §1
The reaction was initiated by adding enzymes.

[5] = Description: The effect of pH on the enzyme activities was determined over a range of 5.5-11.4. The buffers (100 mM) used were phosphate (pH 5.5-8.0), EPPS (8.0-9.0), glycylglycine (9.0-9.7), and CAPS (9.7-11.4). The effect of the temperature on the enzyme activity was examined at temperatures from 30 to 95° C. […] Residual activity was assayed at various time intervals under the standard assay conditions. Substrate specificity was determined using primary and secondary alcohols (50 mM), diols and polyols (50 mM), or aldehydes and ketones (6 mM) under standard assay conditions.
(§3) The effect of the temperature on the enzyme activity was examined at temperatures from 30 to 95° C. The activities were measured using standard assay conditions. Enzyme thermostability was evaluated by incubating the enzyme in sealed serum bottle at 80° C. and 95° C. respectively, and measuring the residual activities at different time intervals under the standard assay conditions.

[6] = Oxygen sensitivity (residual activity after exposure to air); assay type: physicochemical; settings: for t1/2 upon exposure to the air: room temperature
Description: The effect of oxygen on enzyme activity was investigated by exposing the enzyme samples in the air at room temperature and determining the residual activity after oxygen exposure. The exposure was performed in the presence or absence of DDT and SDT. The residual activities of each sample at different time intervals were tested parallelly under the standard assay conditions.

[7] = remark: listed apart in the source
From the text: Enzymes resistant to solvent inactivation are of great interest from scientific and practical points of view.

[8] = Optimum pH of enzyme activity; assay type: biochemical
Description: (§4) The effect of pH on the enzyme activities was determined over a range of 5.5-11.4. The buffers (100 mM) used were phosphate (pH 5.5-8.0), EPPS (8.0-9.0), glycylglycine (9.0-9.7), and CAPS (9.7-11.4). The effect of the temperature on the enzyme activity was examined at temperatures from 30 to 95° C. Enzyme thermostability was determined by incubating the enzyme in sealed serum bottles at 80° C. and 95° C., respectively. Residual activity was assayed at various time intervals under the standard assay conditions. Substrate specificity was determined using primary and secondary alcohols (50 mM), diols and polyols (50 mM), or aldehydes and ketones (6 mM) under standard assay conditions.
All the catalytic properties of native and recombinant TgADH were determined using the in vitro enzyme assay described above. The optimal pH of ethanol-dependent oxidation of native and recombinant TgADHs was determined by testing and comparing the enzyme activity at a series of pHs. Standard enzyme assay at 80° C. were applied using a set of 100 mM buffers: HEPES (pH 6.5, 7.0, 7.5 and 8.0), EPPS (pH 8.0, 8.5, 8.8, 9.0), glycine (pH 9.0, 9.5, 10.0) and CAPS (pH 10.0, 10.5, 11.0). The optimal pH of acetaldehyde-dependent reduction of native and recombinant TgADH was measured between pH 5.5 and 9.5 using the following buffers (100 mM): citrate (pH 5.5 and 6.0), PIPES (pH 6.0, 6.5 and 7.0), HEPES (pH 7.0, 7.5 and 8.0), EPPS (pH 8.0, 8.5, and 9.0), and glycine (pH 9.0 and 9.5).

[9] = Temperature dependence of enzyme activity; assay type: biochemical
Description: as §4, §3

[10] = cited from earlier work

C[C@H](O)[C@H](C)O [(2S,3S)-(+)-2,3-butanediol]
Apparent Vmax (T. guaymasensis ADH [1]): 769 U mg^−1 | kcat (T. guaymasensis ADH [1]): 512 s⁻¹

nicotinamide adenine dinucleotide phosphate [NADPH]
Apparent Km for NADPH, times lower than for NADP^+ (T. guaymasensis ADH [2]): 40 times

B1: TgADH: alcohol dehydrogenase purified from Thermococcus guaymasensis, SEQ ID NO:4, homotetramer, zinc-containing, NADP^+-dependent (protein, listed as Thermococcus guaymasensis)
chain: SKMRGFAMVDFGKAEWIEKERPKPGPYDAIVKPIAVAPCTSDIHTVFEAAFPREMCEFPRILGHEAVGEVVEVGSHVKDFKPGDRVVVPAITPDWRTLDVQRGYHQHSGGMLAGWKFSNPLKEGGKDGVFAEYFHVNDADMNLAHLPDEIKPEVAVMATDMMTTGFHGAELADIPLGGTVAVIGIGPVGLMAVAGARLLGAGRIIAVGSRPVCVEAAKYYGATDIVNRREHPDIAGRILELTGGEGVDSVIIAGGNVDVMKTAVKIVKPGGTVANINYFGSGDYLPIPRIEWGQGMAHKTIKGGLCPGGRLRMERLLDLIKYGRVDPSRLITHKFKGFDKIPEALYLMKDKPKDLIKPVVIIEE
modifications: homotetramer, zinc-containing
Chiral compound synthesis preference (T. guaymasensis ADH [3]): R-configured | Enzyme (specific) activity ([4]; 2-butanol as assay substrate): 1149 U mg^−1 | Specific activity [4]: 1049 U/mg | Thermostability [5]: 24 hr at 95 °C | t1/2 (thermostability) [5]: 70 h | Activity after incubation ([5]; 80° C. for 40 hours): 60% | Activity after exposure to air (in words) ([6]; exposed to air for a week): lost activity | t1/2 upon exposure to the air [6]: 6 h | t1/2 upon exposure to the air ([6]; listed as T. guaymasensis ADH): about 4 hours | Enzyme activity remaining, of full activity [7]: about 40% | Methanol concentration at which half of full activity remained [7]: about 24 % (v/v) | Methanol concentration up to which the enzyme was active [7]: up to 40 % (v/v) | Solvent tolerance ([7]; methanol): 24% methanol | Enzyme activity retained (in words) ([7]; methanol up to 5% (v/v)): almost its full activity | Optimal pH, acetaldehyde reduction [8]: 7.5 | Optimal pH, ethanol oxidation [8]: 10.5 | Optimal pH, formation of alcohols (2-butanone reduction) [8]: 7.5 | Optimal pH, oxidation of alcohols (2-butanol) [8]: 10.5 | Optimal temperature ([9]; tested 30 to 95° C.): over 95 °C

B2: recombinant TgADH: recombinant wild-type TgADH polypeptide (SEQ ID NO: 8) expressed in E. coli BL21-codon plus RIL with vector pET30a (protein)
chain: MHHHHHHSSGLVPRGSGMKETAAAKFERQHMDSPDLGTDDDDKAMADIGSEFMSKMRGFAMVDFGKAEWIEKERPKPGPYDAIVKPIAVAPCTSDIHTVFEAAFPREMCEFPRILGHEAVGEVVEVGSHVKDFKPGDRVVVPAITPDWRTLDVQRGYHQHSGGMLAGWKFSNPLKEGGKDGVFAEYFHVNDADMNLAHLPDEIKPEVAVMATDMMTTGFHGAELADIPLGGTVAVIGIGPVGLMAVAGARLLGAGRIIAVGSRPVCVEAAKYYGATDIVNRREHPDIAGRILELTGGEGVDSVIIAGGNVDVMKTAVKIVKPGGTVANINYFGSGDYLPIPRIEWGQGMAHKTIKGGLCPGGRLRMERLLDLIKYGRVDPSRLITHKFKGFDKIPEALYLMKDKPKDLIKPVVIIEE
modifications: Wild-type with vector coding region
Specific activity [4]: 1079 U/mg and 1073 U/mg | Specific activity ([4]; listed as recombinant enzyme): 1073 U/mg | t1/2 (thermostability) [5]: about 26 hours | Enzyme activity after heat treatment of cell extract (in words) ([5]; 60° C. for half an hour): no loss | Residual activity after incubation ([5]; 42 hours at 80° C.): more than 60% | t1/2 upon exposure to the air [6]: about 4 hours | Optimal pH, formation of alcohols (2-butanone reduction) [8]: 7.5 | Optimal pH, oxidation of alcohols (2-butanol) [8]: 10.5 | Highest activity in temperature dependence test ([9]; at 95° C.): 1533 U/mg

B3: T. brockii: T brockii ADH available at Sigma Aldrich, essentially T ehtanolicus ADH (protein, UniProt P14941 1-352, looked up)
NADP-dependent isopropanol …: MKGFAMLSIGKVGWIEKEKPAPGPFDAIVRPLAVAPCTSDIHTVFEGAIGERHNMILGHEAVGEVVEVGSEVKDFKPGDRVVVPAITPDWRTSEVQRGYHQHSGGMLAGWKFSNVKDGVFGEFFHVNDADMNLAHLPKEIPLEAAVMIPDMMTTGFHGAELADIELGATVAVLGIGPVGLMAVAGAKLRGAGRIIAVGSRPVCVDAAKYYGATDIVNYKDGPIESQIMNLTEGKGVDAAIIAGGNADIMATAVKIVKPGGTIANVNYFGEGEVLPVPRLEWGCGMAHKTIKGGLCPGGRLRMERLIDLVFYKRVDPSKLVTHVFRGFDNIEKAFMLMKDKPKDLIKPVVILA
Thermostability ([10]; at 93.8° C.): 60 min at | Solvent tolerance ([10]; isopropanol): 64%
